How the values were obtained:
[1] = biological target: 16055 NFL TD CC GL2 trimer with N332 restored; experiment: ELISA, His-captured trimer, OD 450 nm
Δ276 Δ301 Δ360 Δ463 [2] = experiment: ELISA, His-captured trimer, OD 450 nm
Δ276 Δ360 Δ463 [3] = experiment: ELISA, His-captured trimer, OD 450 nm
[4] = biological target: 16055 NFL TD CC GL2 trimer with N332 restored; experiment: ELISA, trimer on the plate without His-capture (panel 'plate 2G12'), OD 450 nm
Δ276 Δ301 Δ360 Δ463 [5] = experiment: as above
Δ276 Δ360 Δ463 [6] = experiment: as above
[7] = biological target: 16055 NFL TD CC GL2 trimer with N332 restored; experiment: ELISA, OD 450 nm
Δ276 Δ301 Δ360 Δ463 [8] = experiment: ELISA, OD 450 nm
Δ276 Δ360 Δ463 [9] = experiment: ELISA, OD 450 nm
16055 NFL TD GL L568G = experiment: ELISA, OD 450nm, mAb 5 to 0.00032 ug/mL on the trimer
[10] = biological target: 16055 NFL TD8 CC trimer (HIV-1 strain 16055 (subtype C)); experiment: BLI; IgG immobilized on a bio-sensor, trimer as analyte in solution, series from 200nM
[11] = biological target: 16055 NFL TD8 trimer (HIV-1 strain 16055 (subtype C)); experiment: BLI; IgG immobilized on a bio-sensor, trimer as analyte in solution, series from 400nM
JRFL SOSIP TD [12] = experiment: as above
[13] = biological target: 16055 NFL TD8 trimer (HIV-1 strain 16055 (subtype C)); experiment: ELISA, OD 450 nm; His-tagged trimer captured by anti-His mAb on the plate, antibody titrated
[14] = biological target: JRFL NFL TD15 trimer (HIV-1 strain JRFL (subtype B)); experiment: as above
[15] = biological target: 16055 NFL TD8 trimer (HIV-1 strain 16055 (subtype C)); experiment: BLI (Octet), series from 200nM, 1:1 global fit; paragraph 228: IgG on anti-human IgG Fc sensors, trimer as analyte
[16] = biological target: JRFL NFL TD15 trimer (HIV-1 strain JRFL (subtype B)); experiment: as above
[17] = biological target: 16055 NFL TD8 trimer (HIV-1 strain 16055 (subtype C)); experiment: BLI (Octet), IgG on anti-human Fc sensors, trimer as analyte, global fit 1:1
[18] = biological target: 16055 NFL TD8 CC trimer (HIV-1 strain 16055 (subtype C)); experiment: ELISA, OD 450nm; antibody titrated on the captured trimer
[19] = biological target: 16055 NFL TD8 trimer (HIV-1 strain 16055 (subtype C)); experiment: as above
[20] = biological target: JRFL NFL TD15 trimer (HIV-1 strain JRFL (subtype B)); experiment: as above
[21] = biological target: 16055 NFL TD8 CC trimer (HIV-1 strain 16055 (subtype C)); experiment: ELISA, OD 450nm, mAb 5 to 0.00032 ug/mL on the trimer, without sCD4
[22] = biological target: 16055 NFL TD8 trimer (HIV-1 strain 16055 (subtype C)); experiment: as above
[23] = biological target: JRFL NFL TD15 trimer (HIV-1 strain JRFL (subtype B)); experiment: BLI (Octet), IgG on anti-human Fc sensors, trimer as analyte, global fit 1:1
[24] = biological target: JRFL NFL TD15 CC trimer (HIV-1 strain JRFL (subtype B)); experiment: ELISA, OD 450nm; antibody titrated on the captured trimer
[25] = biological target: BG505 NFL CC trimer (HIV-1 strain BG505 (subtype A)); experiment: as above
JRFL SOSIP TD [26] = experiment: BLI; VRC03 Fab as analyte in solution (series from 400nM), trimer immobilized on the sensor
[27] = biological target: 16055 NFL TD8 CC trimer (HIV-1 strain 16055 (subtype C)); experiment: BLI; VRC03 Fab as analyte in solution (series from 6400nM), trimer immobilized on the sensor
[28] = biological target: 16055 NFL TD8 trimer (HIV-1 strain 16055 (subtype C)); experiment: as above

2G12 (antibody)
EC50 (read off the curve) [1]: 0.1 µg/mL | EC50 (read off the curve) (Δ276 Δ301 Δ360 Δ463 [2]): 0.1 µg/mL | EC50 (read off the curve) (Δ276 Δ360 Δ463 [3]): 0.1 µg/mL | EC50 (read off the curve) [4]: 0.04 µg/mL | EC50 (read off the curve) (Δ276 Δ301 Δ360 Δ463 [5]): 0.04 µg/mL | EC50 (read off the curve) (Δ276 Δ360 Δ463 [6]): 0.04 µg/mL

8ANC131 (antibody)
EC50 (read off the curve) [7]: 0.1 µg/mL | EC50 (read off the curve) (Δ276 Δ301 Δ360 Δ463 [8]): 0.03 µg/mL | EC50 (read off the curve) (Δ276 Δ360 Δ463 [9]): 0.03 µg/mL

8ANC134 (antibody)
EC50 (read off the curve) [7]: 0.1 µg/mL | EC50 (read off the curve) (Δ276 Δ301 Δ360 Δ463 [8]): 0.03 µg/mL | EC50 (read off the curve) (Δ276 Δ360 Δ463 [9]): 0.03 µg/mL

CD4-Ig2 (Fc fusion)
EC50 (read off the curve) [7]: 0.04 µg/mL | EC50 (read off the curve) (Δ276 Δ301 Δ360 Δ463 [8]): 0.04 µg/mL | EC50 (read off the curve) (Δ276 Δ360 Δ463 [9]): 0.04 µg/mL

HJ16 (antibody)
EC50 (read off the curve) [7]: 0.02 µg/mL

PG16 (antibody)
EC50 (read off the curve) (16055 NFL TD GL L568G): 0.07 µg/mL | Kd [10]: 26.7 nM | Kd [11]: 29.6 nM | Kd (JRFL SOSIP TD [12]): 42.4 nM | EC50 (read off the curve) [13]: 0.09 µg/mL | EC50 (read off the curve) [14]: 0.03 µg/mL | Kd [15]: 29 nM | koff [15]: 0.0017 s⁻¹ | kon [15]: 58000 M⁻¹ s⁻¹ | Kd [16]: 41 nM | koff [16]: 0.0032 s⁻¹ | kon [16]: 77000 M⁻¹ s⁻¹

PGDM1400 (antibody)
Kd [17]: 21 nM | EC50 (read off the curve) [18]: 0.1 µg/mL | Kd [10]: 21.7 nM | Kd [11]: 21.5 nM | Kd (JRFL SOSIP TD [12]): 2840 nM | EC50 (read off the curve) [13]: 0.06 µg/mL | koff [15]: 0.0015 s⁻¹ | kon [15]: 73000 M⁻¹ s⁻¹ | Kd [16]: 36 nM | koff [16]: 0.0011 s⁻¹ | kon [16]: 31000 M⁻¹ s⁻¹

PGT121 (antibody)
EC50 (read off the curve) [19]: 0.07 µg/mL | EC50 (read off the curve) [20]: 0.2 µg/mL

PGT128 (antibody)
EC50 (read off the curve) [19]: 0.05 µg/mL | EC50 (read off the curve) [20]: 0.05 µg/mL

PGT145 (antibody)
EC50 (read off the curve) [7]: 0.02 µg/mL | EC50 (read off the curve) (Δ276 Δ301 Δ360 Δ463 [8]): 0.01 µg/mL | EC50 (read off the curve) (Δ276 Δ360 Δ463 [9]): 0.01 µg/mL | EC50 (read off the curve) [21]: 0.07 µg/mL | EC50 (read off the curve) [22]: 0.07 µg/mL | Kd [23]: 5 nM | EC50 (read off the curve) [18]: 0.04 µg/mL | EC50 (read off the curve) [24]: 0.04 µg/mL | Kd [10]: 33.2 nM | Kd [11]: 40.3 nM | Kd (JRFL SOSIP TD [12]): 4.37 nM | EC50 (read off the curve) [13]: 0.1 µg/mL | EC50 (read off the curve) [14]: 0.2 µg/mL | Kd [15]: 40 nM | koff [15]: 0.0044 s⁻¹ | kon [15]: 110000 M⁻¹ s⁻¹ | koff [16]: 0.00067 s⁻¹ | kon [16]: 120000 M⁻¹ s⁻¹

VRC01 (antibody)
EC50 (read off the curve) [7]: 0.1 µg/mL | EC50 (read off the curve) (Δ276 Δ301 Δ360 Δ463 [8]): 0.03 µg/mL | EC50 (read off the curve) (Δ276 Δ360 Δ463 [9]): 0.03 µg/mL | EC50 (read off the curve) [25]: 0.2 µg/mL

VRC03 (antibody)
EC50 (read off the curve) (Δ276 Δ301 Δ360 Δ463 [8]): 0.04 µg/mL | EC50 (read off the curve) (Δ276 Δ360 Δ463 [9]): 0.04 µg/mL | EC50 (read off the curve) [24]: 0.2 µg/mL | EC50 (read off the curve) [14]: 0.2 µg/mL

VRC03 Fab
Kd (JRFL SOSIP TD [26]): 13.3 nM | Kd [27]: 606 nM | Kd [28]: 168 nM

VRC05 (antibody)
EC50 (read off the curve) [7]: 0.1 µg/mL

VRC06b (antibody)
EC50 (read off the curve) [7]: 0.1 µg/mL | EC50 (read off the curve) (Δ276 Δ301 Δ360 Δ463 [8]): 0.03 µg/mL | EC50 (read off the curve) (Δ276 Δ360 Δ463 [9]): 0.03 µg/mL | EC50 (read off the curve) [24]: 0.2 µg/mL | EC50 (read off the curve) [14]: 0.08 µg/mL

VRC13 (antibody)
EC50 (read off the curve) [7]: 0.1 µg/mL

VRC16 (antibody)
EC50 (read off the curve) [7]: 0.05 µg/mL | EC50 (read off the curve) (Δ276 Δ301 Δ360 Δ463 [8]): 0.03 µg/mL | EC50 (read off the curve) (Δ276 Δ360 Δ463 [9]): 0.03 µg/mL

VRC18b (antibody)
EC50 (read off the curve) (Δ276 Δ301 Δ360 Δ463 [8]): 0.04 µg/mL | EC50 (read off the curve) (Δ276 Δ360 Δ463 [9]): 0.04 µg/mL

Source: patent US20160272948A1
